This series relates to MS2 coat protein. As to the kind of experiment: apparent KD of MS2 coat protein; designed switch direction (-1 OFF switch, 1 ON switch): 1; higher = weaker reporter binding. Summed up: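 On Illumina chips, designed RNA switches with common flanks were made by stalled E. coli RNA polymerase. Titrations with SNAP-549-labelled MS2 coat protein, doubling from 0.7 or 1.5 nM to 3 µM, were done with no input, with 200 uM small-molecule ligand, or with an oligonucleotide input. Apparent KD is the median per design over clusters, from curve fits of normalised cluster fluorescence.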

The mark [1] stands for this setting: input ligand: microRNA oligo, concentration not stated.
Setting [2] is: Eterna round: R95, input ligand: FMN 200 uM.
The mark [3] stands for this setting: Eterna round: R95, input ligand: microRNA oligo, concentration not stated.
Where [4] appears, read: Eterna round: R95, input ligand: none.

With “GGAAGGAGGUCAGGAUAUGAACGGAAGGUACAUGAGGAUCACCCAUGUUACGGAGGAAACCCACGUUAGAAGGGACAAGGAAGG [AK SSNG2-V2-4] (Eterna round: R96, puzzle: Same State NG 2)”, the “apparent KD of MS2 coat protein” value was 19.6 nM (input ligand: FMN 200 uM), 15.6 nM under setting [1] and 30.5 nM (input ligand: none).

As to “GGAAUAUGAUGUUACAUGAGGAUCACCCAUGUAGUGAUAACUAAGGAUAUUUGAAAGGGAGGAGAAGAGAAGGUAGGAUCAUAA [AK SSNG3-V2-11.1] (Eterna round: R96, puzzle: Same State NG 3)”, the “apparent KD of MS2 coat protein” value (input ligand: FMN 200 uM) came to 60.7 nM, the “apparent KD of MS2 coat protein” value under setting [1] was found to be 47.6 nM and the “apparent KD of MS2 coat protein” value (input ligand: none) stood at 63.7 nM.

“GGAAUGUGAUGUUACAUGAGGAUCACCCAUGUAGUGACAACUAAGGAUAUCUGAAAGGAAGGAGAGGAGAAGGUAGGAUCACAA [AK SSNG3-V2-16] (Eterna round: R96, puzzle: Same State NG 3)”: the “apparent KD of MS2 coat protein” value is, setting by setting: (input ligand: FMN 200 uM) 15.2 nM; under setting [1], 24.1 nM; (input ligand: none) 40.8 nM.

With “GGACGUCAACUCAACAAUUAAACAUGAGGAUCACCCAUGUCACAGGAUAUGGAUCCUAAUUGGAUCCAGAAGGGUGAGACGUCC [Fiskers NG3ss - 42] (Eterna round: R96, puzzle: Same State NG 3)”, the “apparent KD of MS2 coat protein” value is, setting by setting: (input ligand: FMN 200 uM) 95.9 nM; under setting [1], 100 nM; (input ligand: none) 79.2 nM.

Turning to “GGAGAACAUGAGGAUCACCCAUGUGAGAGGGAUGUAGGAUAUGUGAGGAGUAAAGGAGGGACAGAAGGACAGAGAU [JR_SS!_Sub068] (Eterna round: R96, puzzle: Same State 1)”, the “apparent KD of MS2 coat protein” value under setting [1] is 30.4 nM.

In the case of “GGAGAACAUGAGGAUCACCCAUGUGAGAGGGAUGUAGGAUAUGUGAGGAGUAAAGGAGGGACAGAAGGACAGAGAU [JR_SS!_Sub068] (puzzle: Same State 1)”, the “apparent KD of MS2 coat protein” value turned out to be 37.4 nM under setting [2], 40.5 nM under setting [3] and 47.7 nM under setting [4].

“GGAGCCAAGGCAGGAUAUUCAUAUUAAAUAACAUGAGGAUCACCCAUGUAGGCCAGAAGGCCUUGGGAGAAGGGCCAUGGCUCG [Xeonanis - 13 mod21] (Eterna round: R96, puzzle: Same State NG 2)”: the “apparent KD of MS2 coat protein” value stood at 21.1 nM (input ligand: FMN 200 uM), 109 nM under setting [1] and 189 nM (input ligand: none).

As for “GGAGCCGGCACCGAGGAUAUUCAUAUUAAAACAUGAGGAUCACCCAUGUAGGCCAGAAGGCCUUGGGAGAAGGCGGAUCGGCUCA [Xeonanis - 6] (puzzle: Same State 2)”, the “apparent KD of MS2 coat protein” value is, setting by setting: under setting [2], 29.5 nM; under setting [3], 376 nM; under setting [4], 491 nM.

In the case of “GGAGCCGGCACUGAGGAUAUUCAUAUUAAAACAUGAGGAUCACCCAUGUAGGCCAGAAGGCCUUGGGAGAAGGCAGGUCGGCCCG [Bibimaor] (Eterna round: R96, puzzle: Same State 2)”, the “apparent KD of MS2 coat protein” value came out at 21.7 nM (input ligand: FMN 200 uM), 250 nM under setting [1] and 311 nM (input ligand: none).

Consider “GGAGCCGGCACUGAGGAUAUUCAUAUUAAAACAUGAGGAUCACCCAUGUGGGCCAGAAGGCCUUGGGAGAAGGCAGGUCGACUCG [Diqureveri - 3] (puzzle: Same State 2)”, for which the “apparent KD of MS2 coat protein” value came to 18.5 nM under setting [2], 145 nM under setting [3] and 243 nM under setting [4].

Consider “GGAGCCGGCACUGAGGAUAUUCAUAUUUAAACAUGAGGAUCACCCAUGUAGGCCAGAAGGCCUUGGGAGAAGGCAGGUCGGCUCG [salish99_ss2_r3_076] (puzzle: Same State 2)”, for which the “apparent KD of MS2 coat protein” value under setting [2] was 26 nM, the “apparent KD of MS2 coat protein” value under setting [3] was determined as 216 nM and the “apparent KD of MS2 coat protein” value under setting [4] is 493 nM.

For “GGAGCCGGCCUAGGAUAUUUCAUAAACAAACAUGAGGAUCACCCAUGUAGGCCAGAAGGCCUUGGGAAGAAGGAGGUCGGCUCC [Loop Effect - C27] (Eterna round: R96, puzzle: Same State NG 2)”, the “apparent KD of MS2 coat protein” value reads like this: (input ligand: FMN 200 uM) 22.1 nM; under setting [1], 32.2 nM; (input ligand: none) 45.2 nM.

Consider “GGAGCCGGCCUAGGAUAUUUCAUAAAUAAACAUGAGGAUCACCCAUGUAGGCCAGAAGGCCUUGGGAAGAAGGAGGUCGGCUCC [Loop Effect - U27] (Eterna round: R96, puzzle: Same State NG 2)”, for which the “apparent KD of MS2 coat protein” value was 9.58 nM (input ligand: FMN 200 uM), 30.2 nM under setting [1] and 33.9 nM (input ligand: none).

For the sequence “GGAGCCGGCCUAGGAUAUUUCAUAAUUAAACAUGAGGAUCACCCAUGUAGGCCAGAAGGCCUUGGGAAGAAGGAGGUCGGCUCC [Loop Effect - U26,U27] (Eterna round: R96, puzzle: Same State NG 2)”, the “apparent KD of MS2 coat protein” value was determined as 12.5 nM (input ligand: FMN 200 uM), 39 nM under setting [1] and 82.3 nM (input ligand: none).

Regarding “GGAGCCGGCCUAGGAUAUUUCAUUAAAAAACAUGAGGAUCACCCAUGUAGGCCAGAAGGCCUUGGGAAGAAGGAGGUCGGCUCC [Loop Effect - U24] (Eterna round: R96, puzzle: Same State NG 2)”, the “apparent KD of MS2 coat protein” value amounted to 12.7 nM (input ligand: FMN 200 uM), 16.2 nM under setting [1] and 24.6 nM (input ligand: none).

For “GGAGCCGGCCUAGGAUAUUUCAUUAAAUAACAUGAGGAUCACCCAUGUAGGCCAGAAGGCCUUGGGAAGAAGGAGGUCGGCUCC [Loop Effect - U24,U28] (Eterna round: R96, puzzle: Same State NG 2)”, the “apparent KD of MS2 coat protein” value turned out to be 12.2 nM (input ligand: FMN 200 uM), 35 nM under setting [1] and 46.3 nM (input ligand: none).

Consider “GGAGCCGGUACUGAGGAUAUUCAUAUUAAAACAUGAGGAUCACCCAUGUAGGCCAGAAGGCCUUGGGAGAAGGCGGAUCGGCUCC [Biseusra - 2] (puzzle: Same State 2)”, for which the “apparent KD of MS2 coat protein” value under setting [2] was found to be 22 nM, the “apparent KD of MS2 coat protein” value under setting [3] turned out to be 180 nM and the “apparent KD of MS2 coat protein” value under setting [4] was determined as 417 nM.

On to “GGAGGACAUGAGGAUCACCCAUGUGGAUGGGCGCUAGGAUAUGCGAGAGGGAAGAGUGGAGCAGAAGGAGUGGGUU [JR_SS1_Sub044] (puzzle: Same State 1)”, for which the “apparent KD of MS2 coat protein” value under setting [3] came out at 40 nM.

Regarding “GGAUGAUGGACAGGAUAUUGAUUGUAAUGGUGUCAAGAAGGGUCUUUGAUUUAAACGACCAGUUACAUGAGGAUCACCCAUGUU [JR_SSNG1_Sub031] (Eterna round: R96, puzzle: Same State NG 1)”, the “apparent KD of MS2 coat protein” value reads like this: (input ligand: FMN 200 uM) 133 nM; under setting [1], 107 nM; (input ligand: none) 205 nM.

For the sequence “GGCAAUCGCAUUCGAUUGCCUGAGCAUGUACAUGAGGAUCACCCAUGUCAUGUACAGGCUUUUUGCUCGUACUUAUA (puzzle: Sensor for hsa-mir-208a)”, the “apparent KD of MS2 coat protein” value under setting [2] was 91.6 nM, the “apparent KD of MS2 coat protein” value under setting [3] came to 14.9 nM and the “apparent KD of MS2 coat protein” value under setting [4] was determined as 135 nM.

In the case of “GGCCUGAGUCAAGGAUAUGCUACCGUUUCGGUAGCAGAAGGUGAUCACAUGAGGAUCACCCAUGUUUACGCGAAGACGCGCGCC (Eterna round: R96, puzzle: Same State NG 1)”, the “apparent KD of MS2 coat protein” value was determined as 128 nM (input ligand: FMN 200 uM), 56.7 nM under setting [1] and 35.7 nM (input ligand: none).

With “GGCUAUCGCAUUCGAUAGCCUGAGCAUGUACAUGAGGAUCACCCAUGUCAUGUACAGGCUUUUUGCUCGUACUUAUA (puzzle: Sensor for hsa-mir-208a)”, the “apparent KD of MS2 coat protein” value by setting is: under setting [2], 71 nM; under setting [3], 13.6 nM; under setting [4], 93.4 nM.

Turning to “GGGAGACAUGAGGAUCACCCAUGUGAGAAGAGGCGAGGAUAUCGAAAAAAAAAAAAAAAACGAGAAGGCGCGAGAU [salish99-SS1-004] (Eterna round: R96, puzzle: Same State 1)”, the “apparent KD of MS2 coat protein” value (input ligand: FMN 200 uM) came out at 43.5 nM, the “apparent KD of MS2 coat protein” value under setting [1] came to 133 nM and the “apparent KD of MS2 coat protein” value (input ligand: none) was 115 nM.

With “GGGCCAACGAGCGAGGAUAUGGCCUCGGACACAUGAGGAUCACCCAUGUCGAAAAGGUCAGGAGGCUAGAAGGCGUAAAAUGCCA [Tiqusoor] (puzzle: Same State 2)”, the “apparent KD of MS2 coat protein” value under setting [2] is 11.7 nM, the “apparent KD of MS2 coat protein” value under setting [3] came out at 10.8 nM and the “apparent KD of MS2 coat protein” value under setting [4] is 13.1 nM.

Take “GGUAGGUUACUACCAAUCACAUGAGGAUCACCCAUGUUUUGGGAGGAUAUGGUACCUAUUUGGUACCAGAAGGCCUUAUUAAUU [Fiskers NG3ss - 12] (Eterna round: R96, puzzle: Same State NG 3)”: the “apparent KD of MS2 coat protein” value amounted to 63.6 nM (input ligand: FMN 200 uM), 36.2 nM under setting [1] and 65.3 nM (input ligand: none).

In the case of “GGUCCAGCCUGAGCUGGACAAAAGCAUGUACAUGAGGAUCACCCAUGUCAUGUACAAGCUUUUUGCUCGUCUUAAUU [Mat - hsa-mir-208a - 87] (puzzle: Sensor for hsa-mir-208a)”, the “apparent KD of MS2 coat protein” value under setting [2] turned out to be 514 nM, the “apparent KD of MS2 coat protein” value under setting [3] was found to be 15.1 nM and the “apparent KD of MS2 coat protein” value under setting [4] turned out to be 762 nM.

Regarding “GGUCCAGCCUGAGCUGGACAAAAGCAUGUACAUGAGGAUCACCCAUGUUCAUGUACAAGCUUUUUGCUCGUCUUAAC [salish99_208a_r3_038] (puzzle: Sensor for hsa-mir-208a)”, the “apparent KD of MS2 coat protein” value under setting [2] came to 530 nM, the “apparent KD of MS2 coat protein” value under setting [3] came out at 16.9 nM and the “apparent KD of MS2 coat protein” value under setting [4] was found to be 648 nM.

As to “GGUCCAGCCUGAGCUGGACAAAGGCAUGUACAUGAGGAUCACCCAUGUCAUGUACAAGCUUUUUGCUCGUCUUAAAA [JL mod - D87 - 3] (puzzle: Sensor for hsa-mir-208a)”, the “apparent KD of MS2 coat protein” value stood at 168 nM under setting [2], 13.8 nM under setting [3] and 220 nM under setting [4].

The values are drawn from the supplement of paper PMC9170038.
